The source of these data is patent publication US8278037B2, “N-acetylgalactosamine transferases and nucleic acids encoding the same” (National Institute of Advanced Industrial Science and …, priority 2002, dated 2012).

One experiment deals with T1, NGalNAc-T1 (Homo sapiens, UniProt Q76KP1).
T1 sequence (Q76KP1 62-1039): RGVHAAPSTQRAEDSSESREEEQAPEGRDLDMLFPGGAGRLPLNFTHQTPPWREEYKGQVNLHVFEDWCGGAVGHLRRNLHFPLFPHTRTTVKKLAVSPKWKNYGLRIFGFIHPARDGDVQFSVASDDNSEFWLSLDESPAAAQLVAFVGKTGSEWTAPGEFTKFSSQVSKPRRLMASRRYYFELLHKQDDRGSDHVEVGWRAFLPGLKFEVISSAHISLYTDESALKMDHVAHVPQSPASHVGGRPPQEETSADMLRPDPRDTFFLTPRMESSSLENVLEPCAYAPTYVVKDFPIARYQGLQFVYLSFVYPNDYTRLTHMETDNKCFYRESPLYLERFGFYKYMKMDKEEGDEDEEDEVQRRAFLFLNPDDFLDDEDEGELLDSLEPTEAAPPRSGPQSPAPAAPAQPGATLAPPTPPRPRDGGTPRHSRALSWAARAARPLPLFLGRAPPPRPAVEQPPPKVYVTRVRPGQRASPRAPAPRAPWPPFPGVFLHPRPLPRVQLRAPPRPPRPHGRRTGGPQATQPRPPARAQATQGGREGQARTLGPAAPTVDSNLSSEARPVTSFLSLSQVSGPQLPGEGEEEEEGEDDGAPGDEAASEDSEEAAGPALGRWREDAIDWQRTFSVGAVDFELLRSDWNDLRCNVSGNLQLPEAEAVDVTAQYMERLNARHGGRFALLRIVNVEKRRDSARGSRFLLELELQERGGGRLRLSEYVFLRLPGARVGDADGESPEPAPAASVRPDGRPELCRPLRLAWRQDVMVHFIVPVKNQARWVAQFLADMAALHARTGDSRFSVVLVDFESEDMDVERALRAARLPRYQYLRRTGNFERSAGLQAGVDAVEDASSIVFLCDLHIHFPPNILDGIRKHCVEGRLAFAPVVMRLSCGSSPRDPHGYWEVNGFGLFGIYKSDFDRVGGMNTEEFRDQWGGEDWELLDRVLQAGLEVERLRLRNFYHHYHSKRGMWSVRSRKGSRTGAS
Kind of experiment: Study of optimum pH in enzymatic activity. The experiment is classed as biochemical. Conditions: for (A) − (B): blank 263.21 subtracted. An excerpt:
As described above, it was explained that NGalNAc-T1 and NGalNAc-T2 are glycosyl transferases which transfer GalNAc to GlcNAc. Thereat, the optimum pH of both enzymes was studied. The buffer solutions used are MES (pH 5.5, 6.0, 6.26, 6.5, 6.75), HEPES (pH 6.75, 7.0, 7.4).
In addition, the value (263.21 dpm) of MES (pH 6.75) was adopted as a blank value in the case of a non-enzyme. Further, when pH of HEPES buffer was 7.4 for NGalNAc-T1 and 6.75 for NGalNAc-T2, the highest value was shown. […] Hereinafter, MES (pH 6.5) was used in each of experiments.

The test system of the next experiment is glycodelin in CHO cells. Description: N-glycan structures on glycodelin from NGalNAc-T gene transfected CHO cells, WFA lectin blotting. The experiment is classed as cell-based. As to conditions: gene co-transfected with glycodelin gene in CHO cells, 48 hr culture medium. From the text: As shown above, both NGalNAc-T1 and -T2 could synthesize LacdiNAc structures on mono- and oligosaccharide acceptors. Actually, it is known that the LacdiNAc structures exist in N-glycans on some glycoproteins. Therefore we examined the ability of NGalNAc-T1 to construct LacdiNAc on glycodelin, which is one of major glycoproteins carrying LacdiNAc structures, in vivo. CHO cells were employed for this purpose, because glycodelin produced in CHO cells is devoid of any of the LacdiNAc-based chains.
The glycodelin expression vector was transfected into CHO cells expressing NGalNAc-T1 or -T2 gene and the culture medium was collected from 48 hr-culture medium. Glycodelin was harvested with WFA affinity column from the culture medium. The harvested glycodelin was applied to SDS-PAGE and used for lectin blotting with WFA.

The test system of experiment [1] is asialo/agalacto-fetal calf fetuin. Kind of experiment: LacdiNAc synthesizing activity toward asialo/agalacto-fetal calf fetuin, WFA lectin blot. Format: biochemical. As to conditions: 37° C. for 16 hr, HRP conjugated WFA lectin detection. On the procedure:
Fetal calf fetuin (FCF), neuraminidase, β1-4 galactosidase and glycopeptidase F were purchased from Sigma, Nacalai Tesque (Kyoto, Japan), Calbiochem and Takara, respectively. Asialo/agalacto-FCF was prepared from 200 μg of FCF by incubating with 4 μU of neuraminidase and 12 μU of β1,4-galactosidase at 37° C. for 16 hr. The transfer of GalNAc by GalNAc-T2 to glycoprotein was performed in 20 μl of a standard reaction mixture containing 50 μg of asialo/agalacto-FCF produced by glycosidase treatment. After the incubation at 37° C. for 16 hr, each 5 μl of the reaction mixture was digested with glycopeptidase F (GPF) according to manufacture's instruction. For detection of transferred GalNAc, horseradish peroxidase (HRP) conjugated lectin, Wisteria floribunda agglutinin (WFA) (EY Laboratories, San Mateo, Calif.), was used. A 1 μl of reaction mixtures subjected to 12.5% SDS-PAGE were transferred to nitrocellulose membrane (Schleicher & Schuell, Keene, N.H.) and stained with 0.1% HRP conjugated WFA lectin. The signals were detected using enhanced chemiluminescence (ECL) and Hyperfilm ECL (Amersham Biosciences).

B1: NGalNAc-T1: human enzyme (SEQ ID NO: 1) transferring N-acetylgalactosamine to N-acetylglucosamine via β1-4 linkage; tested as FLAG-tagged amino acids 62-1039 (protein, listed as Homo sapiens)
chain: RGVHAAPSTQRAEDSSESREEEQAPEGRDLDMLFPGGAGRLPLNFTHQTPPWREEYKGQVNLHVFEDWCGGAVGHLRRNLHFPLFPHTRTTVKKLAVSPKWKNYGLRIFGFIHPARDGDVQFSVASDDNSEFWLSLDESPAAAQLVAFVGKTGSEWTAPGEFTKFSSQVSKPRRLMASRRYYFELLHKQDDRGSDHVEVGWRAFLPGLKFEVISSAHISLYTDESALKMDHVAHVPQSPASHVGGRPPQEETSADMLRPDPRDTFFLTPRMESSSLENVLEPCAYAPTYVVKDFPIARYQGLQFVYLSFVYPNDYTRLTHMETDNKCFYRESPLYLERFGFYKYMKMDKEEGDEDEEDEVQRRAFLFLNPDDFLDDEDEGELLDSLEPTEAAPPRSGPQSPAPAAPAQPGATLAPPTPPRPRDGGTPRHSRALSWAARAARPLPLFLGRAPPPRPAVEQPPPKVYVTRVRPGQRASPRAPAPRAPWPPFPGVFLHPRPLPRVQLRAPPRPPRPHGRRTGGPQATQPRPPARAQATQGGREGQARTLGPAAPTVDSNLSSEARPVTSFLSLSQVSGPQLPGEGEEEEEGEDDGAPGDEAASEDSEEAAGPALGRWREDAIDWQRTFSVGAVDFELLRSDWNDLRCNVSGNLQLPEAEAVDVTAQYMERLNARHGGRFALLRIVNVEKRRDSARGSRFLLELELQERGGGRLRLSEYVFLRLPGARVGDADGESPEPAPAASVRPDGRPELCRPLRLAWRQDVMVHFIVPVKNQARWVAQFLADMAALHARTGDSRFSVVLVDFESEDMDVERALRAARLPRYQYLRRTGNFERSAGLQAGVDAVEDASSIVFLCDLHIHFPPNILDGIRKHCVEGRLAFAPVVMRLSCGSSPRDPHGYWEVNGFGLFGIYKSDFDRVGGMNTEEFRDQWGGEDWELLDRVLQAGLEVERLRLRNFYHHYHSKRGMWSVRSRKGSRTGAS
modifications: FLAG tag
As to B1, in the experiment with NGalNAc-T1 (HEPES buffer), the “pH at which the highest value was shown” value worked out at 7.4. For the same molecule, the “Incorporation of radioactivity (A)” value was 1685.06 dpm with NGalNAc-T1 (HEPES buffer (pH 6.75)); 1138.38 dpm with NGalNAc-T1 (HEPES buffer (pH 7.0)); 2587.48 dpm with NGalNAc-T1 (HEPES buffer (pH 7.4)); 339.76 dpm with NGalNAc-T1 (MES buffer (pH 5.5)); 321.04 dpm with NGalNAc-T1 (MES buffer (pH 6.0)); 636.34 dpm with NGalNAc-T1 (MES buffer (pH 6.26)). Also, the “Incorporation of radioactivity (A)” value with NGalNAc-T1 (MES buffer (pH 6.5)) was 1767.72 dpm; with NGalNAc-T1 (MES buffer (pH 6.75)), 923.92 dpm. Moreover, the “(A) − (B)” value was 1421.85 dpm in the experiment with NGalNAc-T1 (HEPES buffer (pH 6.75)); 875.17 dpm with NGalNAc-T1 (HEPES buffer (pH 7.0)); 2324.27 dpm with NGalNAc-T1 (HEPES buffer (pH 7.4)); 76.55 dpm in the experiment with NGalNAc-T1 (MES buffer (pH 5.5)); 57.83 dpm with NGalNAc-T1 (MES buffer (pH 6.0)); 373.13 dpm with NGalNAc-T1 (MES buffer (pH 6.26)). In addition, the “(A) − (B)” value worked out at 1504.51 dpm with NGalNAc-T1 (MES buffer (pH 6.5)) and 660.71 dpm with NGalNAc-T1 (MES buffer (pH 6.75)). Besides, the “pH at which the activity tends to be higher” value in the experiment with NGalNAc-T1 (MES buffer) is 6.5. Moreover, the “non-reducing terminal GalNAc on glycodelin” value with glycodelin in CHO cells is “non-reducing terminal GalNAc is detected”. Moreover, the “transfer of GalNAc to glycoprotein asialo/agalacto-FCF” value in experiment [1] is “same as NGalNAc-T2”.
